Measured values published in US20070105155A1 (Janssen / Centocor, published 2007).

B1: TRPM8-10 fragment (rat TRPM8 D198-S352) (other)
chain: DNTISRNSEENIVAIGIAAWGMVSNRDTLIRNCDDEGHFSAQYIMDDFMRDPLYILDNNHTHLLLVDNGCHGHPTVEAKLRNQLEKYISERTSQDSNYGGKIPIVCFAQGGGRETLKAINTSVKSKIPCVVVEGSGQIADVIASLVEVEDVLTSS
modifications: 35S-methionine labelled
notes: In vitro translated from pAGA3; The forward primer carries an NcoI site (start ATG before D198); also called TRPM8-10/pAGA3; rTRPM8-10
B2: TRPM8-9 fragment (rat TRPM8 A172-S352) (other)
chain: AQSKGAWILTGGTHYGLMKYIGEVVRDNTISRNSEENIVAIGIAAWGMVSNRDTLIRNCDDEGHFSAQYIMDDFMRDPLYILDNNHTHLLLVDNGCHGHPTVEAKLRNQLEKYISERTSQDSNYGGKIPIVCFAQGGGRETLKAINTSVKSKIPCVVVEGSGQIADVIASLVEVEDVLTSS
modifications: 35S-methionine labelled
notes: In vitro translated from pAGA3; The forward primer carries an NcoI site (start ATG before A172); also called TRPM8-9/pAGA3; rTRPM8-9
B3: TRPM8-8 fragment (rat TRPM8 M219-S352) (other)
chain: MVSNRDTLIRNCDDEGHFSAQYIMDDFMRDPLYILDNNHTHLLLVDNGCHGHPTVEAKLRNQLEKYISERTSQDSNYGGKIPIVCFAQGGGRETLKAINTSVKSKIPCVVVEGSGQIADVIASLVEVEDVLTSS
modifications: 35S-methionine labelled
notes: In vitro translated from pAGA3; also called TRPM8-8/pAGA3; rTRPM8-8
B4: TRPM8-7 fragment (rat TRPM8 V145-S352) (other)
chain: VISVTGGAKNFALKPRMRKIFSRLIYIAQSKGAWILTGGTHYGLMKYIGEVVRDNTISRNSEENIVAIGIAAWGMVSNRDTLIRNCDDEGHFSAQYIMDDFMRDPLYILDNNHTHLLLVDNGCHGHPTVEAKLRNQLEKYISERTSQDSNYGGKIPIVCFAQGGGRETLKAINTSVKSKIPCVVVEGSGQIADVIASLVEVEDVLTSS
modifications: 35S-methionine labelled
notes: In vitro translated from pAGA3; The forward primer carries an NcoI site (start ATG before V145); also called TRPM8-7/pAGA3; rTRPM8-7
B5: TRPM8-2 fragment (rat TRPM8 M353-T690) (other)
chain: MVKEKLVRFLPRTVSRLPEEEIESWIKWLKEILESPHLLTVIKMEEAGDEVVSSAISYALYKAFSTNEQDKDNWNGQLKLLLEWNQLDLASDEIFTNDRRWESADLQEVMFTALIKDRPKFVRLFLENGLNLQKFLTNEVLTELFSTHFSTLVYRNLQIAKNSYNDALLTFVWKLVANFRRSFWKEDRSSREDLDVELHDASLTTRHPLQALFIWAILQNKKELSKVIWEQTKGCTLAALGASKLLKTLAKVKNDINAAGESEELANEYETRAVELFTECYSSDEDLAEQLLVYSCEAWGGSNCLELAVEATDQHFIAQPGVQNFLSKQWYGEISRDT
modifications: 35S-methionine labelled
notes: In vitro translated from pAGA3; also called TRPM8-2/pAGA3; rTRPM8-2

Columns and labels:
[1] = target: T1, GST (UniProt P08515 1-218 = GST); experiment: GST pull-down control (GST alone on beads), autoradiography, FIG. 2C
T1 construct: Negative control bait; also called glutathione S-transferase control
T1 sequence (P08515 whole entry): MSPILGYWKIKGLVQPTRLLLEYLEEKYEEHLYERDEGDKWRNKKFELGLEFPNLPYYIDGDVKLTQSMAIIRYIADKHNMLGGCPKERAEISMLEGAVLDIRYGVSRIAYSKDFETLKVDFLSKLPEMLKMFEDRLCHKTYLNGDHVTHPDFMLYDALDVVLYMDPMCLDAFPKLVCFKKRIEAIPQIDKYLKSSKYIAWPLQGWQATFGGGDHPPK
Protocol: Agarose-GSH beads (50% (vol./vol.)) bound with about 1 μg of GST or GST-CaM were incubated with 10 μl of ³⁵S-labelled TRPM8 fragment for 30 min at room temperature in a final volume of 200 μl of binding buffer. At the end of the incubation, the beads were washed three times with 1.0 ml of binding buffer and resuspended in 20 μl of 2× laemmli's sample loading buffer. Protein(s) bound to the beads, including the GST-CaM fusion protein, and possibly the ³⁵S-labelled TRPM8 fragment that interact with the GST-CaM fusion protein, were separated by SDS/PAGE followed by autoradiography.

[2] = target: GST-CaM fusion protein (Homo sapiens (Human), UniProt P0DP23 2-149); experiment: GST pull-down on agarose-GSH beads, 35S-labelled fragment, SDS/PAGE and autoradiography

| binding result [1] | binding result [2] | Binder |
| --- | --- | --- |
| no binding | no binding | B1 |
| no binding | no binding | B2 |
| no binding | no binding | B3 |
| no binding |  | B4 |
|  | no binding | B5 |
